Data as given in patent publication US20200317768A1 (published 2020).
Numbering of substitutions follows the chain as printed. In names and notes the source's numbering stands.

T1: human FcγRIIaH extracellular domain, C-terminal His-tag (human, UniProt P12318 34-217)
T1 construct: also called human FcγRIIa (type H); FcgRIIaH; not shown: His-tag added to the C-terminus
T1 sequence: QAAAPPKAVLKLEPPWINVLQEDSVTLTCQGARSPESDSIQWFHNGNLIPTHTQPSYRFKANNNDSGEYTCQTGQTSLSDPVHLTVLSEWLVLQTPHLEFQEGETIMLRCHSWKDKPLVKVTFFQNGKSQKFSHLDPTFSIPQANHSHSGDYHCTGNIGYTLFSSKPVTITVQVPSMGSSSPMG

T2: human FcγRIIaR extracellular domain, C-terminal His-tag (human, UniProt P12318 34-217)
T2 construct: also called human FcγRIIa (type R); FcgRIIaR; not shown: His-tag added to the C-terminus
T2 chain: T1 sequence with H134R

T3: human FcγRIIb extracellular domain, C-terminal His-tag (human, UniProt P31994 43-217)
T3 construct: also called FcgRIIb; not shown: His-tag added to the C-terminus
T3 sequence: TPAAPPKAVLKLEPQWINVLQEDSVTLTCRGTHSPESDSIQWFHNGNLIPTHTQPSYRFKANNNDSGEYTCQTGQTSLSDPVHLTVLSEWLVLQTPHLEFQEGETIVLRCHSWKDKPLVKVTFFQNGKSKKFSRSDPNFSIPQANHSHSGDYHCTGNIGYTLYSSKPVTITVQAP

B1: MS1032LO19-SG1 (MS103240H795-SG1/M103202L1045-SK1) (antibody, human IgG1, kappa)
heavy: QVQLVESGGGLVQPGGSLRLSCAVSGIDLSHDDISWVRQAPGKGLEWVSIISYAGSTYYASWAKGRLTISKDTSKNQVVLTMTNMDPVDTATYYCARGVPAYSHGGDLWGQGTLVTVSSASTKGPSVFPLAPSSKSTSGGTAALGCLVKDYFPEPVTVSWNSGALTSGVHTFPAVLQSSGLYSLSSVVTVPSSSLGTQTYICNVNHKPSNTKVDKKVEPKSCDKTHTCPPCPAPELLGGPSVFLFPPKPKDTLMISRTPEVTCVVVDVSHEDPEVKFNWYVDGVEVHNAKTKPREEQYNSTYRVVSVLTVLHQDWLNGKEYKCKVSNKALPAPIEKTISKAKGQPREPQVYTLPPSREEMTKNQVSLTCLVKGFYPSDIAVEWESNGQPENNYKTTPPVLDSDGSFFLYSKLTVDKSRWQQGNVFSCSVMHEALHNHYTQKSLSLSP
light: DIVMTQSPATLSLSPGERATLSCTTSQSVYHENWLSWFQQKPGQPPKLLIYWASTLAYGVPSRFSGSGSGTDFTLTISSLQPEDAATYYCAGGYGGGRYAFGQGTKVEIKRTVAAPSVFIFPPSDEQLKSGTASVVCLLNNFYPREAKVQWKVDNALQSGNSQESVTEQDSKDSTYSLSSTLTLSKADYEKHKVYACEVTHQGLSSPVTKSFNRGEC
B2: MS103240H795-MY009/M103202L1045-SK1 (antibody, human IgG1, kappa)
heavy: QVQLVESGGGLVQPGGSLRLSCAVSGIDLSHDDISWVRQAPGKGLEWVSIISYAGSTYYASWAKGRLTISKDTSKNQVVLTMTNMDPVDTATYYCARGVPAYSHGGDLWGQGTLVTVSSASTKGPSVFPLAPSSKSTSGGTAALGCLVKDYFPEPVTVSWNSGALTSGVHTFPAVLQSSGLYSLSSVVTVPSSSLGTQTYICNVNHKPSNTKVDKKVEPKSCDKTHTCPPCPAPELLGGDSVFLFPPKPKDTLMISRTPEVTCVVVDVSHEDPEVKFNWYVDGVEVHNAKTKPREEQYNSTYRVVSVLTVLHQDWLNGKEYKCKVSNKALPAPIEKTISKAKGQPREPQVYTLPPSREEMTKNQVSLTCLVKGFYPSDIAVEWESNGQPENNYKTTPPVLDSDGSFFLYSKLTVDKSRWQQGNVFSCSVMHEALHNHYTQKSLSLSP
light: B1 light
notes: CH = SG1 with P238D (EU numbering)
B3: MS103240H795-MY214/M103202L1045-SK1 (antibody, human IgG1, kappa)
heavy: QVQLVESGGGLVQPGGSLRLSCAVSGIDLSHDDISWVRQAPGKGLEWVSIISYAGSTYYASWAKGRLTISKDTSKNQVVLTMTNMDPVDTATYYCARGVPAYSHGGDLWGQGTLVTVSSASTKGPSVFPLAPSSKSTSGGTAALGCLVKDYFPEPVTVSWNSGALTSGVHTFPAVLQSSGLYSLSSVVTVPSSSLGTQTYICNVNHKPSNTKVDKKVEPKSCDKTHTCPPCPAPELLGGDSVFLFPPKPKDVLMISRTPEVTCVVVDVSHEDPEVKFNWYVDGVEVHNAKTKPREEQYNSTYRVVSVLPVLHQDWLNGKEYKCKVSNKALPAPIEKTISKAKGQPREPQVYTLPPSREEMTKNQVSLTCLVKGFYPSDIAVEWESNGQPENNYKTTPPVLDSDGSFFLYSKLTVDKSRWQQGNVFSCSVMHEALHNHYTQKSLSLSP
light: B1 light
notes: CH = SG1 with P238D/T250V/T307P (EU numbering)
B4: MS103240H795-TT08/M103202L1045-SK1 (antibody, human IgG1, kappa)
heavy: B3 heavy with A332K
light: B1 light
notes: CH = SG1 with P238D/T250V/T307P/A330K (EU numbering)
B5: MS103240H795-TT09/M103202L1045-SK1 (antibody, human IgG1, kappa)
heavy: B3 heavy with V266I, A332K
light: B1 light
notes: CH = SG1 with P238D/T250V/V264I/T307P/A330K (EU numbering)
B6: MS103240H795-TT10/M103202L1045-SK1 (antibody, human IgG1, kappa)
heavy: B3 heavy with S269A, A332K
light: B1 light
notes: CH = SG1 with P238D/T250V/S267A/T307P/A330K (EU numbering)
B7: MS103240H795-TT11/M103202L1045-SK1 (antibody, human IgG1, kappa)
heavy: B3 heavy with L236Y, A332K
light: B1 light
notes: CH = SG1 with L234Y/P238D/T250V/T307P/A330K (EU numbering)
B8: MS103240H795-TT12/M103202L1045-SK1 (antibody, human IgG1, kappa)
heavy: B3 heavy with L236Y, S269A, A332K
light: B1 light
notes: CH = SG1 with L234Y/P238D/T250V/S267A/T307P/A330K (EU numbering)
B9: MS103240H795-TT13/M103202L1045-SK1 (antibody, human IgG1, kappa)
heavy: B3 heavy with V266I, S269A, A332K
light: B1 light
notes: CH = SG1 with P238D/T250V/V264I/S267A/T307P/A330K (EU numbering)
B10: MS103240H795-TT14/M103202L1045-SK1 (antibody, human IgG1, kappa)
heavy: B3 heavy with L236Y, V266I, A332K
light: B1 light
notes: CH = SG1 with L234Y/P238D/T250V/V264I/T307P/A330K (EU numbering)
B11: MS103240H795-TT15/M103202L1045-SK1 (antibody, human IgG1, kappa)
heavy: B3 heavy with L236Y, V266I, S269A, A332K
light: B1 light
notes: CH = SG1 with L234Y/P238D/T250V/V264I/S267A/T307P/A330K (EU numbering)
B12: MS103240H795-TT20/M103202L1045-SK1 (antibody, human IgG1, kappa)
heavy: B3 heavy with Q313R, A332K, P345R
light: B1 light
notes: CH = SG1 with P238D/T250V/T307P/Q311R/A330K/P343R (EU numbering)
B13: MS103240H795-TT21/M103202L1045-SK1 (antibody, human IgG1, kappa)
heavy: B3 heavy with Q313R, A332K, D415K
light: B1 light
notes: CH = SG1 with P238D/T250V/T307P/Q311R/A330K/D413K (EU numbering)
B14: MS103240H795-TT22/M103202L1045-SK1 (antibody, human IgG1, kappa)
heavy: B3 heavy with V266I, Q313R, A332K, P345R
light: B1 light
notes: CH = SG1 with P238D/T250V/V264I/T307P/Q311R/A330K/P343R (EU numbering)
B15: MS103240H795-TT23/M103202L1045-SK1 (antibody, human IgG1, kappa)
heavy: B3 heavy with V266I, Q313R, A332K, D415K
light: B1 light
notes: CH = SG1 with P238D/T250V/V264I/T307P/Q311R/A330K/D413K (EU numbering)

Key:
[1] = biological target: T1, human FcγRIIaH extracellular domain, …; assay: SPR; KD of SG1 divided by KD of variant;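 also: relative to parent M103205H795-SG1 carrying the SG1 human heavy chain constant region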
Procedure: (§1) The kinetic analysis of interactions between these antibodies and FcγR was carried out using BIACORE® T200 or BIACORE® 4000 (GE Healthcare). HBS-EP+ (GE Healthcare) was used as the running buffer, and the measurement temperature was set to 25° C. A chip produced by immobilizing Protein A. Protein A/G or mouse anti-human IgG kappa light chain (BD Biosciences) onto a Series S Sensor Chip CM4 or CM5 (GE Healthcare) by the amine-coupling method was used. […] After the measurement, the antibody captured on the chip was washed off by allowing reaction with 10 mM glycine-HCl, pH1.5 and 25 mM NaOH so that the chip was regenerated and used repeatedly. The sensorgrams obtained as measurement results were analyzed by the 1:1 Langmuir binding model using the BIACORE® Evaluation Software to calculate the binding rate constant ka (L/mol/s) and dissociation rate constant kd (l/s), and the dissociation constant KD (mol/L) was calculated from these values. […] Regarding such interactions, KD values were calculated using the following 1:1 binding model described in BIACORE® T100 Software Handbook BR1006-48 Edition AE.
(§2) Human FcγRIIb-enhanced Fc variants with anti-myostatin variable region were constructed and their affinity for human FcγRs was evaluated. […] In addition, substitutions (Q311R/D413K or […]) were also introduced. The variants were expressed using M103202L1045-SK1 as light chain and their affinity to human FcγRs was analyzed according to the method shown in Example 34.

[2] = biological target: T2, human FcγRIIaR extracellular domain, …; assay: SPR; KD of SG1 divided by KD of variant;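 also: relative to parent M103205H795-SG1 carrying the SG1 human heavy chain constant region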
Procedure: as §1, §2

[3] = biological target: T3, human FcγRIIb extracellular domain, …; assay: SPR; KD of SG1 divided by KD of variant;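 also: relative to parent M103205H795-SG1 carrying the SG1 human heavy chain constant region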
Procedure: as §1, §2

[4] = biological target: T4, human FcγRIIIaV extracellular domain, C-terminal His-tag (human, UniProt P08637 17-208); assay: SPR; KD of SG1 divided by KD of variant;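 also: relative to parent M103205H795-SG1 carrying the SG1 human heavy chain constant region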
T4 construct: also called FcgRIIIaV; not shown: His-tag added to the C-terminus
T4 sequence (P08637 17-208 F176V): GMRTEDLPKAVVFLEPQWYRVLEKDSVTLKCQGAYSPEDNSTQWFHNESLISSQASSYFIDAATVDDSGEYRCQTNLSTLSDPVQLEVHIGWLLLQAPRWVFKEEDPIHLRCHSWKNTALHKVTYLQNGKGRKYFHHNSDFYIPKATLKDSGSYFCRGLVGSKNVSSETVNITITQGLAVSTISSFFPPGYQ
Procedure: as §1, §2

[5] = biological target: T1, human FcγRIIaH extracellular domain, …; assay: SPR (BIACORE), antibody captured, soluble FcgR as analyte, 25C
Procedure: as §1, §2

[6] = biological target: T2, human FcγRIIaR extracellular domain, …; assay: as above
Procedure: as §1, §2

[7] = biological target: T3, human FcγRIIb extracellular domain, …; assay: as above
Procedure: as §1, §2

[8] = biological target: T4, human FcγRIIIaV extracellular domain, …; assay: as above
Procedure: as §1, §2

| Binder | KD fold (SG1 = 1) [1] [fold] | KD fold (SG1 = 1) [2] [fold] | KD fold (SG1 = 1) [3] [fold] | KD fold (SG1 = 1) [4] [fold] | Kd [5] [µM] | Kd [6] [µM] | Kd [7] [µM] | Kd [8] [µM] |
| --- | --- | --- | --- | --- | --- | --- | --- | --- |
| B1 | 1 | 1 | 1 | 1 | 0.75 | 1.1 | 0.58 | 0.81 |
| B2 | 0.01 | 0.05 | 4.5 | 0.004 | 73 | 23 | 1.3 | 220 |
| B3 | 0.023 | 0.05 | 5.8 | 0.005 | 32 | 21 | 1 | 150 |
| B4 | 0.014 | 0.07 | 8.5 | 0.008 | 55 | 16 | 0.68 | 96 |
| B5 | 0.017 | 0.08 | 20 | 0.005 | 44 | 14 | 0.29 | 170 |
| B6 | 0.013 | 0.13 | 9.2 | 0.001 | 56 | 8.7 | 0.63 | 790 |
| B7 | 0.031 | 0.11 | 11.2 | 0.005 | 24 | 10 | 0.52 | 170 |
| B8 | 0.038 | 0.22 | 11.8 | 0.006 | 20 | 5 | 0.49 | 130 |
| B9 | 0.017 | 0.11 | 18.1 | 0.006 | 45 | 9.8 | 0.32 | 140 |
| B10 | 0.042 | 0.14 | 30.5 | 0.005 | 18 | 7.6 | 0.19 | 150 |
| B11 | 0.026 | 0.18 | 23.2 | 0.006 | 29 | 6.1 | 0.25 | 130 |
| B12 | 0.008 | 0.04 | 4.1 | 0.01 | 91 | 28 | 1.4 | 84 |
| B13 | 0.013 | 0.06 | 4.5 | 0.01 | 56 | 20 | 1.3 | 85 |
| B14 | 0.013 | 0.05 | 9.8 | 0.011 | 60 | 21 | 0.59 | 72 |
| B15 | 0.007 | 0.02 | 10.5 | 0.002 | 100 | 48 | 0.55 | 450 |
